Test results published in publication PMC7867234.
Positions count from the first letter of the chain named.

Assays:
[1] = molecular target: T1, OmpR-His6 (Yersinia enterocolitica Ye9) (UniProt P74982); experiment: EMSA; settings: 50 mM Tris-HCl pH 8.0, 100 mM KCl, 1 mM EDTA, 1 mM DTT, 20 mM MgCl2, 12% glycerol, 100 ug/mL BSA, 0.1% Triton X-100; 22 C, 15 min; 0.05 or 0.3 pmol DNA in …
T1 sequence: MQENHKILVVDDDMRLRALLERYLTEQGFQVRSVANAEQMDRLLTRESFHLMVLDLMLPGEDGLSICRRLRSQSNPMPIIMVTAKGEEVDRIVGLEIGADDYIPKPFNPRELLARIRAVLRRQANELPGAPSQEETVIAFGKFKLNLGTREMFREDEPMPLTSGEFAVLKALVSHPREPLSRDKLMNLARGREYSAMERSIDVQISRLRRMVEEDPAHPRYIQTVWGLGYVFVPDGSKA

[2] = molecular target: T2, OmpR-His6 (Yersinia enterocolitica Ye9) (UniProt P74982); experiment: EMSA; settings: 50 mM Tris-HCl pH 8.0, 100 mM KCl, 1 mM EDTA, 1 mM DTT, 20 mM MgCl2, 12% glycerol, 100 ug/mL BSA, 0.1% Triton X-100; 22 C, 15 min; 0.05 or 0.3 pmol DNA in …; remark: listed apart in the source
T2 sequence: T1 sequence with T136A

Sequence | binding [1] | binding [2]
CGTTGCTTCTATCCCTCTGGTTATACTCTGTTAAGCCACCCACAGATCCGCACTTTCATCCGTGCAAAATGAAAATAAACTGCTACAAATTTGTAACCTTATACTTTGCAGTCAT (double strand) [F2] | binds | –
GCAGTCATATACTTAAATTATGCAACAATCCCATTCATCAATACATTGCATGATTAATCGGGCAAAGTGTGCAATTATATCTTTGTTAACAACCACGGTTTTCATTTGGGGCTAGCAGTTCTATAATGAGACGCAA (double strand) [F3] | binds | –
GGTGGTAAAACAAGCGCAAATAGAAATCAGACTCATTAATTTTAAAAATGAAATCGTAATGAATATTTACTTTTGAGTCTTTAACCTGAGTTGAATATGAAAACGATTCTTACTATTATTATTTTAATCATTATTCATTAGTGGTGGAATTTCTCTGAACTCTGGTTTGCTAATGCGTTATAACGAGAGGCTTACATGCATCTGATCCCACAGCGCTCCTACAAAAT (double strand) [PfeoA] | – | binds more weakly
TCATTTTGCACGGATGAAAGTGCGGATCTGTGGGTGGCTTAACAGAGTATAACCAGAGGGATAGAAGCAACGGAAACGCGTGGCAATATTAAATTTCATCCTCGCGTTTCCGACATGACAAATTAACCGGTAATTTCGGCCAGATTCAGTTCT (double strand) [F1] | binds more weakly | –
CAATACATTGCATGATTAATCGGGCAAAGTGTGCAATTATATCTTTGTTAACAACCACGGTTTTCATTTGGGGCTAGCAGTTCTATAATGAGACGCAATTGAGAATATTGCGCCACGGATGTCATAGGCTGAACAGCCTTAATTTGAATCGATAGTAACAGGACTGAATCCGCATG (double strand) [F4] | binds more weakly | –
CAATCTATTCACGGGGCAACAAAAACGAACAAGATTGATAATTATTTTCATTATCAATTCATCCGGCTAATTGTTACATTTGCAATCAGAAAAAAGGTTTGTGTAAACAGCAAAACTCTTTGCTATAAAGTCAATGTTGTTACTACATCAATACCAGTGAAGGAGTCATTATGCCCGCGGTGAAGAAAAATAAGTTGCGCAATATTTCCCCATCATCCAAACCGATTTATCGCGACCAAATTATGCA (double strand) [PfepA] | – | binds
CCCCCTTATTCCAAATGGTTTTTATTTCTCCTTTCTGTTTTTGCAGCAAGAAATAATTCGTCTGTTTGCGACAAAATTGATTTACTTGGGAAATGTAATCATTAAGATTAGCGTTTCTAAAAAATTACAATCAGACACAATTCCTTTCGCAATAGGCCCAAAATGTTAACGTTTTCCCGTTTGTCTCTG (double strand) [PfecA] | – | binds
GCATGATTAATCGGGCAAAGTGTGCAATTATATCTTTGTTAACAACCACGGTTTTCATTTGGGGCTAGCAGTTCTATAATGAGACGCAATTGAGAATATTGCGCCACGGATGTCATAGGCTGAACAGCC (double strand) [F0] | no binding | –
CGTTGCTTCTATCCCTCTGGTTATACTCTGTTAAGCCACCCACAGATCCGCACTTTCATCCGTGCAAAATGAAAATAAACTGCTACAAATTTGTAACCTTATACTTTGCAGTCATATACTTAAATTATGCAACAATCCCATTCATCAATACATTGCATGATTAATCGGGCAAAGTGTGCAATTATATCTTTGTTAACAACCACGGTTTTCATTTGGGGCTAGCAGTTCTATAATGAGACGCAA (double strand) [F23] | binds | –
TGACAAATGAGCGCGTTGAAGCTTGGGTAAAACAGATCAGCGAAGAACTGAATCTGGCCGAAATTACCGGTTAATTTGTCATGTCGGAAACGCGAGGATGAAATTTAATATTGCCACGCGTTTCCGTTGCTTCTATCCCTCTGGTTATACTCTGTTAAGCCACCCACAGATCCGCACTTTCATCCGTGCAAAATGAAAATAAACTGCTACAAATTTGTAACCTTATACTTTGCAGTCAT (double strand) [F12] | binds | –
GCAGTCATATACTTAAATTATGCAACAATCCCATTCATCAATACATTGCATGATTAATCGGGCAAAGTGTGCAATTATATCTTTGTTAACAACCACGGTTTTCATTTGGGGCTAGCAGTTCTATAATGAGACGCAATTGAGAATATTGCGCCACGGATGTCATAGGCTGAACAGCCTTAATTTGAATCGATAGTAACAGGACTGAATCCGCATG (double strand) [F34] | binds | –
